Reference: patent US20120171195A1

Columns and labels:
[1] = target: HLA-Cw*1802 (human) (UniProt P10321); experiment: Luminex beads; MAb 1/400; competitor IgG-free serum
[2] = target: HLA-Cw*1701 (human); experiment: as above
[3] = target: HLA-Cw*0801 (human) (UniProt P10321); experiment: as above
[4] = target: HLA-B*4006 (human) (UniProt P01889); experiment: as above
[5] = target: HLA-Cw*0702 (human) (UniProt P10321); experiment: Luminex beads; MAb 1/1600; competitor rHLA-E
[6] = target: HLA-B*4403 (human); experiment: Luminex beads; MAb 1/800; PBS only
[7] = target: HLA-B*5201 (human); experiment: Luminex beads; MAb 1/800; PBS only
[8] = target: HLA-B*4101 (human) (UniProt P01889); experiment: Luminex beads; MAb 1/800; PBS only
[9] = target: HLA-Cw*1601 (human) (UniProt P10321); experiment: Luminex beads; MAb 1/800; PBS only
[10] = target: HLA-B*5801 (human); experiment: Luminex beads; MAb 1/800; PBS only
[11] = target: HLA-Cw*0303 (human); experiment: Luminex beads; MAb 1/800; PBS only
[12] = target: HLA-B*1513 (human); experiment: Luminex beads; MAb 1/800; PBS only
[13] = target: HLA-B*5101 (human); experiment: Luminex beads; MAb 1/800; PBS only
[14] = target: HLA-B*1511 (human) (UniProt P01889); experiment: Luminex beads; MAb 1/800; PBS only
[15] = target: HLA-Cw*1802 (human) (UniProt P10321); experiment: Luminex beads; MAb 1/800; PBS only
[16] = target: HLA-Cw*1701 (human); experiment: Luminex beads; MAb 1/800; PBS only
[17] = target: HLA-Cw*0304 (human); experiment: Luminex beads; MAb 1/800; PBS only
[18] = target: HLA-B*3701 (human); experiment: Luminex beads; MAb 1/800; PBS only
[19] = target: HLA-B*8201 (human) (UniProt P01889); experiment: Luminex beads; MAb 1/800; PBS only
[20] = target: HLA-Cw*0602 (human) (UniProt P10321); experiment: Luminex beads; MAb 1/800; PBS only
[21] = target: HLA-B*1801 (human); experiment: Luminex beads; MAb 1/100; PBS only
[22] = target: HLA-B*4403 (human); experiment: Luminex beads; MAb 1/100; PBS only
[23] = target: HLA-Cw*0202 (human); experiment: Luminex beads; MAb 1/100; PBS only
[24] = target: HLA-B*5801 (human); experiment: Luminex beads; MAb 1/100; PBS only
[25] = target: HLA-Cw*0303 (human); experiment: Luminex beads; MAb 1/100; PBS only
[26] = target: HLA-B*1401 (human) (UniProt P01889); experiment: Luminex beads; MAb 1/100; PBS only
[27] = target: HLA-B*1511 (human) (UniProt P01889); experiment: Luminex beads; MAb 1/100; PBS only
[28] = target: HLA-Cw*1701 (human); experiment: Luminex beads; MAb 1/100; PBS only
[29] = target: HLA-B*4701 (human); experiment: Luminex beads; MAb 1/100; PBS only
[30] = target: HLA-Cw*0702 (human) (UniProt P10321); experiment: Luminex beads; MAb 1/100; PBS only
[31] = target: HLA-B*4006 (human) (UniProt P01889); experiment: Luminex beads; MAb 1/100; PBS only
[32] = target: HLA-B*4501 (human); experiment: Luminex beads; MAb 1/100; PBS only
[33] = target: HLA-Cw*0602 (human) (UniProt P10321); experiment: Luminex beads; MAb 1/100; PBS only
[34] = target: HLA-Cw*1601 (human) (UniProt P10321); experiment: Luminex beads; MAb 1/400; competitor rHLA-E
[35] = target: HLA-B*1402 (human); experiment: Luminex beads; MAb 1/400; competitor rHLA-E
[36] = target: HLA-B*1513 (human); experiment: Luminex beads; MAb 1/400; competitor rHLA-E
[37] = target: HLA-B*5101 (human); experiment: Luminex beads; MAb 1/400; competitor rHLA-E
[38] = target: HLA-B*1511 (human) (UniProt P01889); experiment: Luminex beads; MAb 1/400; competitor rHLA-E
[39] = target: HLA-Cw*1701 (human); experiment: Luminex beads; MAb 1/400; competitor rHLA-E
[40] = target: HLA-Cw*0501 (human); experiment: Luminex beads; MAb 1/400; competitor rHLA-E
[41] = target: HLA-Cw*0302 (human) (UniProt P10321); experiment: Luminex beads; MAb 1/400; competitor rHLA-E
[42] = target: HLA-B*3701 (human); experiment: Luminex beads; MAb 1/400; competitor rHLA-E
[43] = target: HLA-Cw*1601 (human) (UniProt P10321); experiment: Luminex beads; MAb 1/800; competitor rHLA-E
[44] = target: HLA-B*5101 (human); experiment: Luminex beads; MAb 1/800; competitor rHLA-E
[45] = target: HLA-Cw*1802 (human) (UniProt P10321); experiment: Luminex beads; MAb 1/800; competitor rHLA-E
[46] = target: HLA-Cw*0501 (human); experiment: Luminex beads; MAb 1/800; competitor rHLA-E
[47] = target: HLA-Cw*1402 (human) (UniProt P10321); experiment: Luminex beads; MAb 1/800; competitor rHLA-E
[48] = target: HLA-B*3701 (human); experiment: Luminex beads; MAb 1/800; competitor rHLA-E

MFI [1]: 7220 MFI | MFI [2]: 1360 MFI | MFI [3]: 3530 MFI | MFI [4]: 5550 MFI | MFI [5]: 88 MFI | MFI [6]: 983 MFI | MFI [7]: 786 MFI | MFI [8]: 960 MFI | MFI [9]: 752 MFI | MFI [10]: 835 MFI | MFI [11]: 805 MFI | MFI [12]: 760 MFI | MFI [13]: 515 MFI | MFI [14]: 796 MFI | MFI [15]: 4090 MFI | MFI [16]: 847 MFI | MFI [17]: 783 MFI | MFI [18]: 993 MFI | MFI [19]: 614 MFI | MFI [20]: 839 MFI | MFI [21]: 3540 MFI | MFI [22]: 3680 MFI | MFI [23]: 3880 MFI | MFI [24]: 3990 MFI | MFI [25]: 3200 MFI | MFI [26]: 7340 MFI | MFI [27]: 3430 MFI | MFI [28]: 3360 MFI | MFI [29]: 3650 MFI | MFI [30]: 3080 MFI | MFI [31]: 8590 MFI | MFI [32]: 4770 MFI | MFI [33]: 4040 MFI | MFI [34]: 87 MFI | MFI [35]: 88 MFI | MFI [36]: 228 MFI | MFI [37]: 128 MFI | MFI [38]: 111 MFI | MFI [39]: 184 MFI | MFI [40]: 87 MFI | MFI [41]: 130 MFI | MFI [42]: 39 MFI | MFI [43]: 87 MFI | MFI [44]: 99 MFI | MFI [45]: 35 MFI | MFI [46]: 70 MFI | MFI [47]: 48 MFI | MFI [48]: 29 MFI
Substance: murine monoclonal antibody (MAb) MEM-E/02
